Measured values reported in the DeepSol protein solubility set.

Assay: soluble on expression in E. coli; label from the status in PepcDB or PDB records

Soluble on expression in E. coli, not soluble:
MAFQQPNLQQIFSSVDKDRSGQISSDELQTALSNGTWNPFNPETCRLMIGMFDSNGDGAINFQEFQALWRYINDWTNCFRGFDTDGSGNIDKSELTNALTQFGYRLSPQFYNILMHKFDRSHSNRINFDDFIQLCVVLQTLTAAFRLEIRAKIDLEI
HPWRKGPFTVHDIHIDTEWRSDWKWDRLLPHITPLKNRSVLDVGCGNGYHMWRMLGEDARLCVGIDPSHLFLIQFEAIRKLMGNDQRAHLLPLGIEQLPELNAFDTVFSMGVLYHRRSPLDHLIQLKNQLVAGGELVLETLVIDGDENAVLMPVDRYAQMRNVYFFPSARALKVWLESVGFVDVKIVDECVTTTGEQRSTEWMKHNSLPEYLDPNDSTKTIEGHPAPKRAILIAKKPD
MTLPKIGKPATRALNSQGIYTLEAVSQYTKSSLMEMHGVGPKAISILEQALFQHQLHFKTEVQSSLPFKLTGDVSCNHAPKRQQMIDFIVATAALDIELLRSLVTTEFIWSVPGHFDIYGPQILIQELSNYYNQVASLNIHSNITHGCLGSMHGIEILKTGKEIHFAHFFEFENHKKDAKLSKVTSYIVVA
MGSDKIHHHHHHMIRETRQIHVGNVAIGGGAPCSVQSMCNTDTRDVAATLSQVLSLSSAGCEIVRCAVPDMAAAEALGEIKRQSPIPVIADIHFDYRLALRVLEGGIDGLRLNPGNIGERWKVEEVVKAARERLVPIRIGVNAGSLEKELLEKYGHPTAEAMVESALGHVRILEDIGYDQIKISLKASDVMKTVEAYRLLAQKVDYPLHIGITEAGTIFSGTIKSSVGLGILLADGIGDTMRVSLTGDPVDEVRVGFEILKALGLRQRGINFVSCPTCGRCQINLIGVAQEVENRLAAIDTPLTVAVMGCVVNGPGEAREADVGIAGGKGEGLLFRHGEIVRKVPEAEMADALIAEVEQMAKEKTHS
MGSDKIHHHHHHMWFAVLSSNEVRRKPVGVRRLGRDLVFWRDSLGKVYALEDFCVHRRARLSAGKVINDRIQCPFHGFEYDGNGRVRLIPALGKNYKVPDRFRVNSYPVYEKNNIIWLWSGEGEPEKEPKFFDDIDEDFAYAEFRELWNVPFPRAVENQLDVMHLPFVHRTTIGRGNRTLVHGPVVKWIDEDSFIFYVFNEVDRGQRVKRPEELSGEESRVYLEFIFPNLWQNHISEGTRVVAFFVPVDRQKTMIYLRFYVKMTGLKPVDSIIARLSMPLNRIILHQDRRVVETQERDIRKDVLVQGDLPIMEFRKRLYKEKKLIDFLFGGGQ
MRRILVLTKNILVEQTFQQQLQHLNYEVFCTNCCEETIEHELTFFNYFDAIVLSETLSQNDCLRLLGSLSSLEKPIYRRSQSMCNKREAEIWQERGIIRWLGLKDSLEDIREKIDTVDQSFAEVTAELLDDQVKKIRFTKNEQRFLKILYQHAHEGLDRDQICRLLWQKEPDASTKSQLSFVCKRVKQKFSDAGMNEEIITTYWGKGYQINEQILPYLEQTLFETAQ
NEDCNTIFGADFSHEGETPGLGAEITRSEFSGQFIGKEIFKEGEFRSVAVVKKGQKAEGKDYVDGISGGTLTSDGVNEMLISSLRPYALYLMNNVKK
MAHHHHHHMKYTEITIDDGAYAKIFMHSIKYSCDDVCGILIGKYLSSNEKKKKCLITNYIPLFHTHILSPYLNLAFTLVENYYKDKDERIIGYFHISSDDSKNSDIENIKVCELISEKLIKNYNDAFVCLLEFSKYVNDEDNCLNIFMKNDKSNWEKGNVVISNKNKEFLKKNISNQHYLNIYDFDDHLNSMKCDFMNPDLFNNVS
MTIIKYIKFVVIIVIVTIVFSCSKNEAGNSEYDPSLPISLTDFFPIQGGMATRMVIEGANFGTDLSQIKVFFNQKEASILNVKNSIIYLLVPKLPGNDCIVTVKVGNQEARFTRNFQYIENYSVTTIAGQPGTNLFVEGTLAAAQFGPVQHLAIDDENNLFITERNGSDGKGTCSVLNEESGTVTFLFKASDNLNVPTVNAQTQNVYIPLDGGYTFYELNPVNQWIAKSRLVLHPSKEQQEAGMDDFEINWKHSLAFSRYDNMIYTRSYGGDLIKVDPETRVGQKIGNFFPNTDSFIVAHPTQPEILYIAYAAKHVIYTYNIETGEHKLFAGAFGQSGWNDGIATDAEFNSPRQMSLDMEGNIYIADSGNHCIRMIDKNGIVTTPIGQPGEAGYADGSPDMALLNDPRGVAVNSEGDVYIADLGNRCIRKLTLQLEHHHHHH
MSLIPKIKDISVIECQPAGVRLTVVKITTDQDGLYGYGCATFTQRADLVKPAVERYLKPFLMGKTTDRIEDIWQSCYDSSYWKNGPVLNNAISGIDQALWDIKGRQAGLPVYQLAGGKCREAADCYAHADGADFPNVVEAAKRYMAQGFRHVRVQIGVPGMAGYGSSRGDTKVQALHSKPVFEPAYYVRRALKLFEVCRTELGEEIELLHDMHERVSPNQAVQFVKDAEKFKMFFMEDPLSPEDIAYFRQIRQQCATPIAMGELFNSPHEWTPLISERLIDYIRVHVSQAGGFTPARKIAILGETFGVKTAWHGPGDVSPIGHMANVTLDLVSYNFGIQEYSPFNGRTQEIFSGCPVMKDGYLYASEKPGWGIEVDEKLAAKAPFTDREGHHHHHH
MGSDKIHHHHHHSCTSQKKKLAKMHTEDTIVKAQLIQHTKESLLSPYQHVNFQLDLTKNKTAFYGYNTGSKWELWVKTDSTITFKYDGEEMVFSSAKTTEAQDNPVVKYHSKTIVSNPSQPGLKKSITVMIRDEKYLDEIQGTYVPLSVRIEVEDHTNKTTVIYAGGGFYVVNPIIHDIWVLDSMSNVKVSAENFPLGAPRLEFHLDGGKIYGFSGCNEITATFYTIQNQIQLNSEISTLKSCVHVPLEPLFMGALANKRYYYSFEERRLKLKHRDGSILSFKKVD
MLKIGVITMALLSFLNAGWLGNLFDNTPTPYYTMPIDLSKTGNVAETDIRIDKEYRTGIALNYDFRRQKNKMTRNEYNNIKVFFGNSYTSGTAIPVKLKIEKIMDKNETTILNDIIIVDNNGGHELHSSLIKEIALSQGKYRIKVETTEDFSELSDLSVLVEIYYIRAPK
MVYFYESKPTEYSTPYQIVMGKDKFENDLLIKWSYRELNYVWFHADKYSSGHVYLKLRPNEKTIDDIPQEVICDCLQLCKSESIQGNKMPQCTILITPWHNLRKNRYMNPGEVSFKSLRQCRKMECGARDNKILNRLAKTRVELFNNVEATLNEAKKTKNGDFFVNYIESNRSNLIEEEKLRKVAKKNQKKKNKQSKDEVTDDMQLEV
MGSDKIHHHHHHMPHPYHERLNFKTELPLRVISHGTVGPKMVLPHWHRAVELAYAYRGQPGTAHIGRSTYHMLADHLYVINSEVVHSYETFLDEDNQIVTLLLPASWLRNAVADEQLPIWGPLDLDLQSAVYQPLAKAVQTLVAGVITPSSARSAYLTSLGAEYQLVGQLLKHLTVNGQVTSDQLPLPAPLRQAVTELQENYAQPVSIANLAEQLNYSSVYFSRYFKDYMGISPKAYLGQIRLERATSLLMTSQDSIQNIALKTGFSTEKNFFVTFKQYYQMTPRTYRQRYSAQQSWS

Soluble on expression in E. coli, soluble:
GSQRVLVEPDAGAGVAVMKFKNPPVNSLSLEFLTELVISLEKLENDKSFRGVILTSDRPGVFSAGLDLTEMCGRSPAHYAGYWKAVQELWLRLYQSNLVLVSAINGACPAGGCLVALTCDYRILADNPRYCIGLNETQLGIIAPFWLKDTLENTIGHRAAERALQLGLLFPPAEALQVGIVDQVVPEEQVQSTALSAIAQWMAIPDHARQLTKAMMRKATASRLVTQRDADVQNFVSFISKDSIQKSLQMYLERLKEEKG
GSPGGSLFVALYDFVASGDNTLSITKGEKLRVLGYNHNGEWCEAQTKNGQGWVPSNYITPVS
SLQETTAQEQKVGNYALGPEGLKKALAETGSHILVMDLYAKTMIKQPNVNLSNINLGSEGGELLKNIHLNQELSRINANYWLDTAKPQIQKTARNIVNYDEQFQNYYDTLVETVQKKDKAGLKEGINDLITTINTNSKEVTDVIKMLQDFKGKLYQNSTDFKNNVGGPDGKGGLTAILAGQQATIPQLQAEIEQLRATQKKHFDDVLAWSIG
MNEKNIKHSQNFITSKHNIDKIMTNIRLNEHDNIFEIGSGKGHFTLELVQRCNFVTAIEIDHKLCKTTENKLVDHDNFQVLNKDILQFKFPKNQSYKIFGNIPYNISTDIIRKIVFDSIADEIYLIVEYGFAKRLLNTKRSLALFLMAEVDISILSMVPREYFHPKPKVNSSLIRLNRKKSRISHKDKQKYNYFVMKWVNKEYKKIFTKNQFNNSLKHAGIDDLNNISFEQFLSLFNSYKLFNK
MGSSHHHHHHSSGLVPRSGHMEPRGTKRKAEKTEVEKPLNKLPRAVPSLRTQPSLYSGPFPFYRRPSELGCFSLDAQRQYHGDARALRYYSPPPINGPGPDFDLRDGYPDRYQPRDEEVQERLDHLLRWVLEHRNQLEGGPGWLAGATVTWRGHLTKLLTTPYERQEGWQLAASRFQGTLYLSEVETPAARAQRLARPPLLRELMYMGYKFEQYMCADKPGGSPDPSGEVNTNVAYCSVLRSRLGNHPLLFSGEVDCLNPQAPCTQPPSCYVELKTSKEMHSPGQWRSFYRHKLLKWWAQSFLPGVPHVVAGFRNPEGFVCSLKTFPTMEMFENVRNDREGWNPSVCMNFCAAFLSFAQSTVVQDDPRLVHLFSWEPGGPVTVSVHRDAPYAFLPSWYVETMTQDLPPLSKTPSPKD
MVTVREAKLEDIKDIAKVHVDSWRTTYHEIIPIDYLNSLNYKEFEDKWKSRSLKGVFVAQDEKGSVFGFASFGPIRSEQEGYDGELYAIYLLEERQRQGAGRALLAKGAEFLLQHGFSSMFVWVIEQNPSIIFYQAYSPERVAEDNFEIAGVRLKEVGLGWPDLSALKTLLNR
DDEITREPRKVVLHRGSTGLGFNIVGGEDGEGIFISFILAGGPADLSGELRKGDRIISVNSVDLRAASHEQAAAALKNAGQAVTIVAQYRPEEYSRQHA
MEATLPVLDAKTAALKRRSIRRYRKDPVPEGLLREILEAALRAPSAWNLQPWRIVVVRDPATKRALREAAFGQAHVEEAPVVLVLYADLEDALAHLDEVIHPGVQGERREAQKQAIQRAFAAMGQEARKAWASGQSYILLGYLLLLLEAYGLGSVPMLGFDPERVRAILGLPSRAAIPALVALGYPAEEGYPSHRLPLERVVLWR
MARLLEEHGFETKTNVIVQGNCVEQEIDVVAERDGERYMIECKFHNIPVYTGLKEAMYTYARFLDVEKHGFTQPWIFTNTKFSEEAKKYAGCVGIKLTGWSYPEKEGIEVLLESKGLYPITILRIDKEVLDELVRAGLVFCRDVVSAGEEKLREIGLSAKKAREVIAEAKKVIG
MSLRKSTLSGEVRVRNHQLGIYEKALAKDLSWPERLVLAKSCGFDFVEMSVDETDERLSRLDWSAAQRTSLVAAMIETGVGIPSMCLSAHRRFPFGSRDEAVRERAREIMSKAIRLARDLGIRTIQLAGYDVYYEDHDEGTRQRFAEGLAWAVEQAAASQVMLAVEIMDTAFMNSISKWKKWDEMLASPWFTVYPDVGNLSAWGNDVPAELKLGIDRIAAIHLKDTQPVTGQSPGQFRDVPFGEGCVDFVGIFKTLHKLNYRGSFLIEMWTEKAKEPVLEIIQARRWIEARMQEAGFICEGGSHHHHHH
MIKQRTLKQSIKVTGVGLHSGEKVTLTLRPAMPNTGVVYYRTDLNPAVAFPADPNSVRDTMLCTALINEQGVRISTVEHLNAALAGLGIDNIIIEVDAPEIPIMDGSASPFIYLLLDAGIEEQNAAKKFIRIKQYVRVEDGDKWAEFKPYNGFRLDFTIDFDHPAIGKDVRNYEMNFSAQAFVHQISRARTFGFMKDIEYLQSQGLVLGGSLDNAIVLDDYRILNEDGLRFKDELVRHKMLDAIGDLYMAGYNIIGDFKAYKSGHGLNNKLLRAVLANQEAWEFVTFEDKAQVPQGYVAPVQVLILEHHHHHH
